{
  "source": "the supplement of paper PMC7125110",
  "parents": {"B1": {"name": "glmS ribozyme (parent)", "chain": "AUAAAAGCGCCAGAACUACAGAAAUGUAGUUGACGAGGAGGAGGUUUAUCGAAUUUUCGGCGGAUGCCUCCAAA"}},
  "conditions_in_all_cases": "with glucosamine-6-phosphate",
  "key": {"[1]": {"variants_of": "B1", "assay": "kcat; higher = faster cleavage; RNA array", "procedure,_shortened": "(§1)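 Tracking of barcoded ribozyme variants used a hybridised Cy3 probe at 37 °C, after in situ transcription by E. coli RNA polymerase on sequenced MiSeq chips. The flowed solution held 40 μM to 10 mM glucosamine-6-phosphate in HEPES/KCl/Mg(OAc)2 buffer, and imaging ran over ~14 h. kobs was taken from exponential decay fits of normalised per-tile medians, and kcat and KM from weighted Michaelis–Menten fits.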"}, "[2]": {"variants_of": "B1", "assay": "KM; higher = weaker cofactor use; RNA array", "procedure,_shortened": "as §1"}, "[3]": {"variants_of": "B1", "assay": "self-cleavage kobs at 640 uM GlcN6P; higher = faster cleavage; RNA array", "procedure,_shortened": "as §1"}, "[4]": {"variants_of": "B1", "assay": "self-cleavage kobs at 2500 uM GlcN6P; higher = faster cleavage; RNA array", "procedure,_shortened": "as §1"}, "[5]": {"variants_of": "B1", "assay": "self-cleavage kobs at 10000 uM GlcN6P; higher = faster cleavage; RNA array", "procedure,_shortened": "as §1"}, "[6]": {"variants_of": "B1", "assay": "self-cleavage kobs at 40 uM GlcN6P; higher = faster cleavage; RNA array", "procedure,_shortened": "as §1"}, "[7]": {"variants_of": "B1", "assay": "self-cleavage kobs at 160 uM GlcN6P; higher = faster cleavage; RNA array", "procedure,_shortened": "as §1"}},
  "note": "± gives the standard error. For some of these results: This sample holds only a part of the variants without activity.",
  "data": [
    {"variant": "G37A G40C", "values": [
      {"measurement": "kcat", "setting": "[1]", "value": "0.000207 ± 4.1e-05", "unit": "s⁻¹"},
      {"measurement": "KM", "setting": "[2]", "value": "2180 ± 880", "unit": "µM"},
      {"measurement": "self-cleavage kobs at 640 uM GlcN6P", "setting": "[3]", "value": "4.22e-05 ± 1.3e-05", "unit": "s⁻¹"},
      {"measurement": "self-cleavage kobs at 2500 uM GlcN6P", "setting": "[4]", "value": "0.00015 ± 3.5e-05", "unit": "s⁻¹"},
      {"measurement": "self-cleavage kobs at 10000 uM GlcN6P", "setting": "[5]", "value": "0.000157 ± 3.4e-05", "unit": "s⁻¹"}
    ]},
    {"variant": "G44A U47A", "values": [
      {"measurement": "kcat", "setting": "[1]", "value": "0.000358 ± 9.3e-05", "unit": "s⁻¹"},
      {"measurement": "KM", "setting": "[2]", "value": "3500 ± 1700", "unit": "µM"},
      {"measurement": "self-cleavage kobs at 40 uM GlcN6P", "setting": "[6]", "value": "< 1e-05", "unit": "s⁻¹"},
      {"measurement": "self-cleavage kobs at 640 uM GlcN6P", "setting": "[3]", "value": "7.28e-05 ± 1.8e-05", "unit": "s⁻¹"},
      {"measurement": "self-cleavage kobs at 2500 uM GlcN6P", "setting": "[4]", "value": "0.000137 ± 2.1e-05", "unit": "s⁻¹"},
      {"measurement": "self-cleavage kobs at 10000 uM GlcN6P", "setting": "[5]", "value": "0.00028 ± 4.7e-05", "unit": "s⁻¹"}
    ]},
    {"variant": "G37A U69G", "values": [
      {"measurement": "kcat", "setting": "[1]", "value": "2.13e-05 ± 3.7e-06", "unit": "s⁻¹"}
    ]},
    {"variant": "G40U G41U", "values": [
      {"measurement": "kcat", "setting": "[1]", "value": "8.36e-05 ± 7.4e-06", "unit": "s⁻¹"},
      {"measurement": "KM", "setting": "[2]", "value": "901 ± 330", "unit": "µM"},
      {"measurement": "self-cleavage kobs at 40 uM GlcN6P", "setting": "[6]", "value": "< 1e-05", "unit": "s⁻¹"},
      {"measurement": "self-cleavage kobs at 640 uM GlcN6P", "setting": "[3]", "value": "2.92e-05 ± 8e-06", "unit": "s⁻¹"},
      {"measurement": "self-cleavage kobs at 2500 uM GlcN6P", "setting": "[4]", "value": "7.1e-05 ± 8.5e-06", "unit": "s⁻¹"},
      {"measurement": "self-cleavage kobs at 10000 uM GlcN6P", "setting": "[5]", "value": "7.34e-05 ± 7e-06", "unit": "s⁻¹"}
    ]},
    {"variant": "U31G A36C C70G", "values": [
      {"measurement": "kcat", "setting": "[1]", "value": "7.04e-05 ± 3.2e-05", "unit": "s⁻¹"},
      {"measurement": "self-cleavage kobs at 640 uM GlcN6P", "setting": "[3]", "value": "0.000105 ± 4.3e-05", "unit": "s⁻¹"}
    ]},
    {"variant": "C11U A33U", "values": [
      {"measurement": "kcat", "setting": "[1]", "value": "7.95e-05 ± 1.1e-06", "unit": "s⁻¹"},
      {"measurement": "KM", "setting": "[2]", "value": "1500 ± 99", "unit": "µM"},
      {"measurement": "self-cleavage kobs at 640 uM GlcN6P", "setting": "[3]", "value": "2.29e-05 ± 1.1e-05", "unit": "s⁻¹"},
      {"measurement": "self-cleavage kobs at 2500 uM GlcN6P", "setting": "[4]", "value": "5.06e-05 ± 9.1e-06", "unit": "s⁻¹"},
      {"measurement": "self-cleavage kobs at 10000 uM GlcN6P", "setting": "[5]", "value": "6.9e-05 ± 5.3e-06", "unit": "s⁻¹"}
    ]},
    {"variant": "C68G C70A", "values": [
      {"measurement": "kcat", "setting": "[1]", "value": "< 1e-05", "unit": "s⁻¹"},
      {"measurement": "self-cleavage kobs at 40 uM GlcN6P", "setting": "[6]", "value": "< 1e-05", "unit": "s⁻¹"},
      {"measurement": "self-cleavage kobs at 10000 uM GlcN6P", "setting": "[5]", "value": "< 1e-05", "unit": "s⁻¹"}
    ]},
    {"variant": "G40A A52U", "values": [
      {"measurement": "kcat", "setting": "[1]", "value": "0.000228 ± 7.9e-05", "unit": "s⁻¹"},
      {"measurement": "self-cleavage kobs at 2500 uM GlcN6P", "setting": "[4]", "value": "9.49e-05 ± 1.5e-05", "unit": "s⁻¹"},
      {"measurement": "self-cleavage kobs at 10000 uM GlcN6P", "setting": "[5]", "value": "0.000146 ± 2.3e-05", "unit": "s⁻¹"}
    ]},
    {"variant": "C10U C11U A12G", "values": [
      {"measurement": "kcat", "setting": "[1]", "value": "2.44e-05 ± 6.4e-06", "unit": "s⁻¹"},
      {"measurement": "self-cleavage kobs at 160 uM GlcN6P", "setting": "[7]", "value": "< 1e-05", "unit": "s⁻¹"}
    ]},
    {"variant": "C10U U54G", "values": [
      {"measurement": "kcat", "setting": "[1]", "value": "< 1e-05", "unit": "s⁻¹"},
      {"measurement": "self-cleavage kobs at 40 uM GlcN6P", "setting": "[6]", "value": "< 1e-05", "unit": "s⁻¹"}
    ]},
    {"variant": "U30G U65C", "values": [
      {"measurement": "kcat", "setting": "[1]", "value": "0.000117 ± 2.1e-05", "unit": "s⁻¹"},
      {"measurement": "self-cleavage kobs at 640 uM GlcN6P", "setting": "[3]", "value": "4.91e-05 ± 1.7e-05", "unit": "s⁻¹"},
      {"measurement": "self-cleavage kobs at 2500 uM GlcN6P", "setting": "[4]", "value": "0.000122 ± 2.6e-05", "unit": "s⁻¹"},
      {"measurement": "self-cleavage kobs at 10000 uM GlcN6P", "setting": "[5]", "value": "9.72e-05 ± 2.2e-05", "unit": "s⁻¹"}
    ]},
    {"variant": "U56G U69G C71U", "values": [
      {"measurement": "kcat", "setting": "[1]", "value": "4.56e-05 ± 1.5e-05", "unit": "s⁻¹"},
      {"measurement": "self-cleavage kobs at 160 uM GlcN6P", "setting": "[7]", "value": "8.5e-05 ± 2.7e-05", "unit": "s⁻¹"},
      {"measurement": "self-cleavage kobs at 640 uM GlcN6P", "setting": "[3]", "value": "3.88e-05 ± 1.7e-05", "unit": "s⁻¹"},
      {"measurement": "self-cleavage kobs at 2500 uM GlcN6P", "setting": "[4]", "value": "5.83e-05 ± 2e-05", "unit": "s⁻¹"}
    ]},
    {"variant": "A14C G51A A53U G59U C68U", "values": [
      {"measurement": "kcat", "setting": "[1]", "value": "3.12e-05 ± 1.2e-05", "unit": "s⁻¹"}
    ]},
    {"variant": "A15U A48C", "values": [
      {"measurement": "kcat", "setting": "[1]", "value": "2.45e-05 ± 3.9e-06", "unit": "s⁻¹"}
    ]},
    {"variant": "A15G U57G", "values": [
      {"measurement": "kcat", "setting": "[1]", "value": "9.24e-05 ± 1.1e-05", "unit": "s⁻¹"},
      {"measurement": "KM", "setting": "[2]", "value": "2500 ± 1200", "unit": "µM"},
      {"measurement": "self-cleavage kobs at 2500 uM GlcN6P", "setting": "[4]", "value": "5.11e-05 ± 2.2e-05", "unit": "s⁻¹"},
      {"measurement": "self-cleavage kobs at 10000 uM GlcN6P", "setting": "[5]", "value": "7.35e-05 ± 1.2e-05", "unit": "s⁻¹"}
    ]},
    {"variant": "U56A A64G", "values": [
      {"measurement": "kcat", "setting": "[1]", "value": "0.0109 ± 0.0032", "unit": "s⁻¹"},
      {"measurement": "KM", "setting": "[2]", "value": "1640 ± 680", "unit": "µM"},
      {"measurement": "self-cleavage kobs at 40 uM GlcN6P", "setting": "[6]", "value": "0.00036 ± 5.4e-05", "unit": "s⁻¹"},
      {"measurement": "self-cleavage kobs at 160 uM GlcN6P", "setting": "[7]", "value": "0.000983 ± 0.00014", "unit": "s⁻¹"},
      {"measurement": "self-cleavage kobs at 640 uM GlcN6P", "setting": "[3]", "value": "0.0025 ± 0.00037", "unit": "s⁻¹"},
      {"measurement": "self-cleavage kobs at 2500 uM GlcN6P", "setting": "[4]", "value": "0.00654 ± 0.00084", "unit": "s⁻¹"},
      {"measurement": "self-cleavage kobs at 10000 uM GlcN6P", "setting": "[5]", "value": "0.0123 ± 0.0025", "unit": "s⁻¹"}
    ]},
    {"variant": "C50U U57A", "values": [
      {"measurement": "kcat", "setting": "[1]", "value": "1.46e-05 ± 7e-07", "unit": "s⁻¹"},
      {"measurement": "KM", "setting": "[2]", "value": "397 ± 84", "unit": "µM"},
      {"measurement": "self-cleavage kobs at 40 uM GlcN6P", "setting": "[6]", "value": "< 1e-05", "unit": "s⁻¹"},
      {"measurement": "self-cleavage kobs at 10000 uM GlcN6P", "setting": "[5]", "value": "< 1e-05", "unit": "s⁻¹"}
    ]},
    {"variant": "A39U C50U", "values": [
      {"measurement": "kcat", "setting": "[1]", "value": "4.51e-05 ± 4.1e-06", "unit": "s⁻¹"},
      {"measurement": "KM", "setting": "[2]", "value": "1250 ± 570", "unit": "µM"},
      {"measurement": "self-cleavage kobs at 2500 uM GlcN6P", "setting": "[4]", "value": "3.23e-05 ± 9.4e-06", "unit": "s⁻¹"},
      {"measurement": "self-cleavage kobs at 10000 uM GlcN6P", "setting": "[5]", "value": "3.95e-05 ± 7.1e-06", "unit": "s⁻¹"}
    ]},
    {"variant": "A39G U54C", "values": [
      {"measurement": "kcat", "setting": "[1]", "value": "0.0135 ± 0.004", "unit": "s⁻¹"},
      {"measurement": "KM", "setting": "[2]", "value": "759 ± 340", "unit": "µM"},
      {"measurement": "self-cleavage kobs at 40 uM GlcN6P", "setting": "[6]", "value": "0.000807 ± 0.00031", "unit": "s⁻¹"},
      {"measurement": "self-cleavage kobs at 160 uM GlcN6P", "setting": "[7]", "value": "0.00183 ± 0.0008", "unit": "s⁻¹"},
      {"measurement": "self-cleavage kobs at 640 uM GlcN6P", "setting": "[3]", "value": "0.00774 ± 0.0024", "unit": "s⁻¹"},
      {"measurement": "self-cleavage kobs at 2500 uM GlcN6P", "setting": "[4]", "value": "0.00946 ± 0.0035", "unit": "s⁻¹"}
    ]}
  ]
}
